# Measurements published in the supplement of paper PMC9170038.
# System: K4 kissing-loop RNA reporter
# Assay: apparent KD of K4 kissing-loop reporter; higher = weaker reporter binding
# Conditions: Eterna round: R107
# Method: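 RNA-MaP round R107: designed RNA switches with theophylline, tryptophan, arginine or FMN aptamers are transcribed on-chip within common flanks. They are titrated with a labelled K4 kissing-loop RNA reporter in RNA-MaP buffer (100 mM Tris pH 7.5, 80 mM KCl, 4 mM MgCl2), without ligand or with the indicated ligand. Median apparent KD per design.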
# [1] = input ligand: theophylline 20 uM
# [2] = input ligand: tryptophan 2.4 mM
# 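Further: bound reporter read as fluorescence of individual clusters on recovered sequencing chips by microscopy, with normalized cluster intensities fitted with a binding model.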
Sequence,apparent KD of K4 kissing-loop reporter (input ligand: FMN 200 uM) [nM],apparent KD of K4 kissing-loop reporter (input ligand: arginine 13.2 mM) [nM],apparent KD of K4 kissing-loop reporter (input ligand: none) [nM],apparent KD of K4 kissing-loop reporter [1] [nM],apparent KD of K4 kissing-loop reporter [2] [nM]
UGUACCGAGUCAGGAUAUGGCGUCGAAAGACGAAAACCAGUGAUGUUGGAAAUCUGCGAAAGCAGUCCAGAAGGGACUUGGUACU [FmnBS 25 #SwitchBubble #StaticStem #DoubleMagnetSystem],199,233,266,251,251
UUAGUAUAGAGAGGAUAUACCUUCCAGUGAUGUUGGAUAGAUGAAUUUAAUCAUCAAGCAUAGCUUGUAGAAGGCUCUAUACAUU [AK1 SS FMN B],373,558,535,637,613
AAAGGAGUGGAAGGAUAUCCUGGUGUGGGUGGUGUUAGUGAUGUUGGUGGUGCAGUGAUGUUGCGCGGAGAAGGUCCGGUAUUGG [BDazzled - #2 - Exc. FMN B],485,462,437,517,410
AAUUGAGUGACGGCCGCCACUAGAGUGAUUUUUUUGUUUGAGUGAUGUUUUGAUGUUUGAUUUUGUAGGACCGGGUUGAGUGAUG [qqxzmullin],305,306,357,528,247
AUAAUAUGAGUGAUGUUCAUGUAAGCUGAAGGAGCGGACGAAAGUCCAGGUAGGUCGCAGCGUUCCUUUACCUCAUGAGAAGGAG [KL_SSArg-A1 #analogue],125,184,203,235,127
AAUAAGGUCGCCGAUACCAGCGCAGGCAGAGCAAAGCUCUGCCAAGUAGUGAUGUUACUGCGCCCUUGGCAGCGGUGGCACGACC [Omei KL Theo B SS C v3],196,157,163,123,167
ACACUCGGCUCGGCCGCCACUCCAGUGAUGUUGGAGUCAUAGCUAUGACGAGAAGAGCGUUUUCGGAGGACCGGGAGCUCACAGG [Leveeder],338,261,359,351,222
UGGACGAAUAUCGAUAAGAUAUUCUGGGAUACCAGUGACGAAAGUCACCCUUGGCAGCUCAACUGCCAGUGAUGUUGGUAGUCCA [Astros-Elo-mod#3],238,142,218,162,165
AGGUUUUGAUUAGGAUAUGCACUGAGGAGGAGAAUAUAGUGAUGUUAUAUAAGAGGAAGGAGUAGAGUAGAAGGGAUUGAGGUUU [SSFMNB.R],249,164,199,172,188
UUCUACGAGUGAUGUUCGUAGUGUAAUCGCUAGGAUAUCGUUUUUUCGAGAAGGAGCGUCGAAGUGAUACGAAAGUAUCGCUUCG [FMN A 13],151,258,300,284,284
CGCAGUGAUGUUGCUUAUAUUCUUGGUUAACGAGGACCGGUACGGCCGCCACUCGAUUUCUAACUAUUCCAGUGUUAAUUUGAGU [JR_ExcTryptoA_Sub006],444,488,502,564,306
AACUGUCAAGGACAACAUUACUGAGGUGAUACCAGCAUCGAAAGAUGCCCUUGGCAGCACCAACUUGCAGUGAUGUUGCAAGUAA [Design6],212,184,212,279,214
UCUCAAGCACAGUGAUGUUGUGCUUGGGAAGGAGCGCGUGGGAACGCAGGUAGGUCGCCCGGUAAAUCGCGUCAAUGCUAGAGGC [Arg A Ex t5],118,110,99.9,100,116
UUGAUAUGAUAGUAUCUUGUUUGAUAAAGGCAGGAUAUCGUAUAUUUGAGAAGGGCCAUUAUAUGCAGUGAUGUUGCAAAUAAGU [Exclusion FMN A Gf 25],43.5,56.7,41.3,61.4,40
AAGGAAUGUAUAGAUUAUAUACAUUCAACAGAGGAUAUGCAUUAUUGCAGAAGGCUGAAUGCAGUGAUGUUGCAAUAAUUAUUUA [#09 K4 FMN A Same State],60.5,199,181,291,129
GGAUCCACCAGUGAUGUUGGAGAAAACUCUAAGGAUAUGACGAAAGUCAGAAGGUGGUAGACUGGACAAAGUCCGGUGGGAUCCA [FmnA10 U30+G78],264,229,350,406,317
GCAGGACGAGGAGGAGGAUGAAUUACUGAAGGAGCGCAUAUGGUUGCAGGUAGGUCGCGGUAAACAAGUAUAGUGAUGUUAUAUC [SSArgA.P],913,586,552,621,584
AAUGUACAAGUGAUGUUUGUACUUUCCGAAGGAGCGUCUAAUAAGACAGGUAGGUCGCGGAUUAUCAUAAUUAUCAGGUUUUCAA [JR_SSArginiA_Sub015],98.8,88.8,92.4,89.1,90.9
GCAGGACGAGGAGGAGGAUGAAUUACUGAAGGAGCGCAUAUUUUUGCAGGUAGGUCGCGGUAAACAAGUAUAGUGAUGUUAUAUA [SSArgA.M],415,464,446,514,264
GGAUAGGAUAGAGGAUAUGGAAAACACAGAAGUGACUUGUUGUGUUUAUCCAUAGGGAGUGAUGUUCCAGAAGGCUGUCCUAUCG [MatMod 22 - Jieux - Exclusion - FMN B],333,206,206,230,154
AAUUAAUGUAUAGAUUAUAUACAUUAAUCAGAGGAUAUGCUUUGUUGCAGAAGGCUGAAUGCAGUGAUGUUGCAAUUUUAAUUUA [JR_SSFMNA_Sub005],50.8,99.8,54.7,87.3,46.7
CAUGGGCCAGUGAUGUUGGCGCGCACGGGACGAGGACCGGUACGGCCGCCACUCGCUUUUGCUCUUAUCGGGAUAAGAAAACCGA [Enveerorle],453,134,567,309,635

Sequence,apparent KD of K4 kissing-loop reporter (input ligand: FMN 200 uM) [nM],apparent KD of K4 kissing-loop reporter (input ligand: arginine 13.2 mM) [nM],apparent KD of K4 kissing-loop reporter (input ligand: none) [nM],apparent KD of K4 kissing-loop reporter [1] [nM],apparent KD of K4 kissing-loop reporter [2] [nM]
AGUGAACGAGCGGCCGCCACUAACUGAGUGAUGUUCGUGAGUAGUGCUGUUCUCAUGAUUGUUUUUAGGACCGGGUUCGAUGUUG [ttbjmullin],483,329,391,431,360
GUAGACAGGCUGCGAACCUAGUCUACAGACUAGGAUAUCAGGAAACUGAGAAGGAGUCUAGUUGCAGUGAUGUUGCAAGAAUAAU [KL-SSFMN-A25],81.3,125,94.6,135,84.7
UAACUUGCAGUGAUGUUGCAAGAACUGGAUACCAGCAUGGAAACAUGCCCUUGGCAGCCAGAAGCUGGCUGACUGCAAGGUCAGC [Design4],148,142,124,136,123
GAUCUGAACGAAAGUUCGGAUCAGUCCGAUACCAGUAUGGAUUCAUACCCUUGGCAGCGGAAAUCUGCUAUGGAGUGAUGUUCCU [Theophylline A K4 13],362,280,413,396,274
CGCAGUGAUGUUGCGAGUUUAUUCAGGGAAGGAGCGCCACAGAUGGCAGGUAGGUCGCCCACGCAGUGAUGUUGUGUAUUCGGGU [Exclusion Arginine A GF 3],141,128,127,128,116
GGAUUUGAGUGAUGUUUAAAACGAGUGUCCAAGGAUAUUGCCCAAACAAGAAGGUGGGCAUGCUUUUGCGAUAAUCAACGGAGAC [theeternabot_exclusion_KL_FMN_A_9],408,666,451,606,291
AGAGAUAUAUGAGGAUAUGAGUUAGUUAAUGAGUGAGUUUUAGUGUUGUUUGGUUAGUGAUGUUAUUUAGAAGGCGUGAGUGAUG [ttytmullin],98.8,75.2,74.9,106,75.9
UCUGGUAUAUCUGAUACCAGAGAAUAGAAUCAAUUGAAUAUGGAGUGAUGUUCCAUAAAACUCCCUUGGCAGCAGAUAAUCAUAU [Same State Theophylline B GF 22],113,167,125,172,112
UUUUUGGAGAAUUAUAGUGAUGUUAUGAAGGAGGAUAUCUGGAGAUGGAGAAGGCCUAGUGGCUCAGCCAUGGAGGGUGGGUGGG [ExFMNA.aA],1110,527,894,655,611
AACGGCCAGUCGGCCGCCACUCGAUGCAGUGAUGUUGCUAACUUUCUAAAAGAGUGAUGUUCAUGGAGGACCGGGACUAGUGUAA [#30 K4 Tryptophan B Exclusion],317,244,291,255,241
GGAGUUACCUGGGAUACCAGUCGGAGUCUCAGAGCACGGAGUGAUGUUCUGGGAUGUUUCGGCCCUUGGCAGCUCUGGGACUCCA [#2 Exclusion - Theophylline B Attempt #15 (HarryS)],317,209,268,219,228
GGUCCGCACAUGAGUGAUGUUCAUGUAGAUACCAGUAUCGAAAGAUACCCUUGGCAGCUACGGCACGGACCGGCGGGAAACCGCC,213,200,194,291,184
AGAACUGUCUUGGAUACCAGUGAUGUUGGUAUCUGUGUGUGAGUGCAAAGCGUCCCACAUUGCCCUUGGCAGCUAAGACUGUUCA [Omei KL Theo B Exc A v1],147,129,137,182,132
AAUAUAUAGUGAAGGAGCGCGAUAAGCAGUGAUGUUGCUUUGUUAUGAUUGUCUAUUUUUACGCAGGUAGGUCGCACUAUAUAUA [JR_ExcArginiB_Sub020],165,104,126,109,122
AUACGUUUAAGUGAUACCAGACUGGUGAGUGAUGUUUACCAAUAAAUUAAAUUAUUAGCUGUCCCUUGGCAGCACAGUUUAUUUA [JR_ExcTheophyB_Sub005],258,330,317,323,229
GACAUACCUAUGGAGGGCCGAUCGAUCAUACGAGGACCGGUACGGCCGCCACUCGUGGGCAGUGAUGUUGACCCUGGGAGGUAAG,316,223,252,232,483
GGUUUAUAGGAGGAUACCAGUACGGAUAAAGUACGUUAAUAGUAGAGUGAUGUUCUAAAGUACCCUUGGCAGCUUAGAUUAAGUU [ExTheophylB.J],72,142,106,110,64.4
AGACUUCACCGAAGGAGCGACGUAGCCUAGUGAUGUUAGGCACGAGAGAAAUCUCGUGUACGUCAGGUAGGUCGCGGUGAAGUCA [Omei KL Arginine B SS C v5],990,630,961,827,1040
GUAGGAUGAGGAGGAGGAUGAAUUACUGAAGGAGCGCAUAUUUUUGCAGGUAGGUCGCGGUAAAGAAGUAUAGUGAUGUUAUAUA [SSArgA.J],410,434,381,624,304
UGAGUGAUGUUCAAGGACUAGAUCUAAAUAAAGGAUAUAGCAUACGCUAGAAGGUUAAAAUUUCUGGAUCCCAGUUUAAACCUUU [theeternabot_sameState_KL_FMN_A_49],246,154,222,222,195
UUUUGCGCGUACGAUACCAGUAUCUGUAAGAGUGAUGUUCAGCGCUGAAGACAGCAGCGAUACCCUUGGCAGCGUUACAUGCUAG [theeternabot_sameState_KL_Theo_B_22],797,422,553,475,530
